Data taken from US20090203530A1, “Polymer evolution via templated synthesis” (priority 2005, published 2009).

Experiments:
papain [1] = molecular target: T1, papain (Carica papaya, UniProt P00784); experiment: Fluorescence polarization-based papain binding assay; conditions: BFL-labelled controls; varying concentrations of papain
T1 construct: purchased Sigma-Aldrich
T1 sequence (P00784 134-345): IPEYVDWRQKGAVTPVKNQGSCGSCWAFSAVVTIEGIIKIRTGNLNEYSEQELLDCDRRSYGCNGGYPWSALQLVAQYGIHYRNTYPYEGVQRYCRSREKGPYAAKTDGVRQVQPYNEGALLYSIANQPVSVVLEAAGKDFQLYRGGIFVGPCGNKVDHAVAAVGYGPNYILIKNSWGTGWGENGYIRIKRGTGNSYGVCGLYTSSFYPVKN
Procedure: Purified PNA 18-mers prepared as described above were reacted with BODIPY-fluorescein succinamidyl ester (BFL-SE, Molecular Probes). For each labelling reaction, 25 μL of a 250-400 μM stock solution of PNA in H2O was mixed with 25 μL 0.2 M sodium bicarbonate (pH 8.0) plus 2.5 μL of a 20 mg/mL solution of BFL-SE in DMSO. After four hours at 25° C., 50 μL DMSO was added, and the labelling reaction was incubated for an additional 4 hours. The labelled product was purified by reverse-phase HPLC as described above. The addition of the BFL fluorophore on the N-terminal primary amine typically delayed the elution time of the PNA by ˜5 min, and the absorption of the eluted peak was monitored both at 260 nm and at 470 nm. Masses of labelled peptides were confirmed by MALDI mass spectrometry, as follows:
Fluorescence polarization-based papain affinity assays were carried out as follows. BFL-labelled PNA was used at concentrations between 5 nM and 10 nM. […] After the binding reactions were equilibrated (4 hours at 25° C.), they were loaded onto a Nunc opaque black 384-well plate, and fluorescence polarization was measured using the Analyst AD system (Molecular Devices) with a fluorescein filter. Fluorescence polarization data in FIGS. 5B and 6C is shown as the change in fluorescence polarization (calculated relative to the output in the absence of protein) as a function of papain concentration. […]

papain [2] = molecular target: T1, papain; experiment: Enrichment assay by papain affinity selection of translated template mixtures; type: binding
Procedure: The methods used for in vitro papain affinity selection have been reported previously (Giesen (1998) NUCLEIC ACIDS RES. 26, 5004-5006). Papain-conjugated sepharose beads (50 μL) were prepared according to this protocol and combined with […] of translated and displaced PNA library. After 4 hours at 4° C. with slow mixing, the beads were filtered, washed three times with high salt buffer (50 mM Tris pH 7.5, 0.5 M NaCl), once with low salt buffer (50 mM Tris pH 7.5, 0.1 M NaCl), and resuspended in 50 μL papain selection buffer (50 mM Tris pH 7.5, 100 mM NaCl, 1 mM EDTA). One fifth of the beads were removed for PCR as described below.
The remaining beads (40 μL) were heated for 15 min at 95° C., cooled to 60° C., supplemented with an equal volume of fresh papain-linked sepharose beads; cooled rapidly to 4° C., and the selection was repeated. This protocol was repeated three times (four rounds total) for the first-generation selection (FIG. 4A) and was repeated twice (three rounds total) for the second-generation selection (FIG. 6A). After each round of affinity selection, PCR was performed using one fifth of the total beads. Filtered beads were resuspended in 18 μL NEB buffer 4 with BSA, 1 μL Hha I, and 1 μL HinPI I (all restriction endonucleases purchased from New England Biolabs). Reactions were incubated for 1.5 hours at 37° C., then added directly into 80 μL PCR master mix containing 5 μL Taq buffer, 5 μL 25 mM MgCl2, 1 μL 100 μM primer 1, 1 μL 100 μM primer 2, 1 μL 25 mM dNTPs, and 1 μL Taq DNA polymerase and 54 μL H2O. Primer sequences are as follows:
For the enrichment experiments described in FIG. 5A, […] total template:mixture (500:1 M1 template:P1 template; or 500:1 U1 template:P1 template) was translated as described above using library translation conditions. The individual template sequences are as follows:
The translated products were displaced as described above, subjected to three rounds of selection against papain as described above, and the resulting bound DNA templates were digested and amplified by PCR as described above. […]

Molecule: CC1=CC(C)=[N+]2C1=Cc1ccc(CCC(=O)NCCN)n1[B-]2(F)F [BFL fluorophore, BFL-ethylenediamine]
- papain affinity (fluorescence polarization) (papain [1]): did not bind papain

B1: P1 translation product: PNA 40-mer selected for papain binding, covalently linked to its DNA template (SEQ ID NO: 16) (conjugate)
DNA: TGCGACGGTGCGCACCGTCGCAAGCCATTCATGCATGCACCCAGGCATGCATTCATTCATGCGGACAAGGTGCGCACCTTGTCC
modifications: DNA, backbone and methylation of C not given here; DNA template covalently linked to PNA translation product, further chemistry not fully specified
- enrichment after papain affinity selection (papain [2]; 500:1 M1:P1 template mixture, translated, displaced, three rounds of selection, PCR and restriction digestion): ~500 fold
- enrichment after papain affinity selection (papain [2]; 500:1 mixture of U1 (unrelated):P1 templates): 500 fold

B2: U1: unrelated library sequence, translated from template SEQ ID NO: 18 (conjugate)
DNA: TGCGACGGTGCGCACCGTCGCAAGTCAGTCACCCAATCACTCACGCATCCAGTCACCCAACCGGACAAGGTGCGCACCTTGTCC
modifications: DNA, backbone and methylation of C not given here; DNA template covalently linked to PNA translation product, further chemistry not fully specified
- enrichment after papain affinity selection (papain [2]; 500:1 ratio of M1:U1 DNA templates, translation, displacement, selection): no detectable enrichment
